First the molecules themselves.
B1: anti-humanized TfR1 single-domain antibody-Fc fusion antibody 4D11-hFC1 (Fc fusion)
chain (part 1 of 2): ESGGGLVQPGESLRLSCVASGSIWSIYTMGWYRQAPGKQRDFVASITRDSTRTLESVKDRFIISRDNAKNTLYLQMNSLKPEDTAVYYCHAITSLGEYWGQGTQVTVSS
B2: anti-humanized TfR1 single-domain antibody-Fc fusion antibody 4C5-hFC1 (Fc fusion)
chain (part 1 of 2): ESGGGLVQPGESLRLSCAASGSIWSIYTMGWYRQAPGLQRDFVGSIAREGGRRYAESVKDRFTISRDNAKNTMYLQMNSLKREDTAVYYCNAITSLGEYWGQGTQVTVSS
B3: anti-humanized TfR1 single-domain antibody-Fc fusion antibody 2H7-hFC1 (Fc fusion)
chain (part 1 of 2): ESGGGLVQPGESLRLSCVASGSIWSIYTMGWYRQAPGKQRDFVASITGDSTRTLESVKDRFIISRDNTKNTLYLQMNSLKPEDTAVYYCQAITSLGEYWGQGTQVTVSS
B4: anti-humanized TfR1 single-domain antibody-Fc fusion antibody 8E10-hFC1 (Fc fusion)
chain (part 1 of 2): ESGGGLVQAGGSLRLSCAFSGPPFSTYGMGWFRQAPGKEREFVATISGSGFTTTYADSVKGRFTISRDNAKNTVYLQMNSLKPGDTAVYYCAAGVLDGTNWHEYDYWGQGTQVTVSS
B5: anti-humanized TfR1 single-domain antibody-Fc fusion antibody 7A3-hFC1 (Fc fusion)
chain (part 1 of 2): ESGGGLVQPGESLRLSCVASGSIWSIYTMGWYRQAPGKQRDFVASITRDSGRRYAESVKDRFTISRDNAKNTLYLQTNSLKPEDTAVYYCHAITSLGEYWGQGTQVTVSS
B6: anti-humanized TfR1 single-domain antibody-Fc fusion antibody 5D1-hFC1 (Fc fusion)
chain (part 1 of 2): ESGGGLVQPGESLRLSCVASGSIWSIYTMGWYRQAPGKQRDFVASITRDGGRRHAESVKDRFTISRDNAKNTLYLQMNSLKPEDTAVYSCLAITSLGEYWGQGTQVTVSS
B7: anti-humanized TfR1 single-domain antibody-Fc fusion antibody 5A3-hFC1 (Fc fusion)
chain (part 1 of 2): ESGGGLVQAGGSLTLSCAVSRRAFNTKAMGWFRQAPGKEREFVATISWSGFSTNYADSVKGRFTISRDNAKNTVYLQMNSLKPGDTAVYYCAAGVLDGTNWHEYDYWGQGTQVTVSS
B8: anti-humanized TfR1 single-domain antibody-Fc fusion antibody 7G5-hFC1 (Fc fusion)
chain (part 1 of 2): ESGGGSVQPGGSLRLSCAVSGSIFSIDTMAWYRQAPGKQRELVAAITKGGSRNYADSVKGRFTISRDNAKNTVYLQMNSLKPEDTAVYYCLADRLFRDRSWGQGTQVTVSS
B9: anti-humanized TfR1 single-domain antibody-Fc fusion antibody 7D10-hFC1 (Fc fusion)
chain (part 1 of 2): ESGGGLVQPGGSLRLSCATSGGTFEMYAMAWFRQAPGKDREGVAGFSWRDSSTTYYSDSVKGRFTISRDNAKNTVYLQMNSLKPEDTAVYYCAARPYVSRWSESSGYDYWGQGTQVTVSS
B10: anti-humanized TfR1 single-domain antibody-Fc fusion antibody 5D3-hFC1 (Fc fusion)
chain (part 1 of 2): ESGGGLVEPGGSLRLSCAASGNIFSINNMYWHRQAPGKQRELVGGITRGGITNYVDSVKGRFTISRDNAKNTVYLQMNSLKPEDTAVYFCNAHPWRLGIADYWGQGTQVTVSS
B11: anti-humanized TfR1 single-domain antibody-Fc fusion antibody 7G10-hFC1 (Fc fusion)
chain (part 1 of 2): ESGGGLVQAGASLKLSCNGSGRTFISYAMGWFRQAPGKQREFVAAERWSGSGIYYADSLKGRFTISRDNAKNTVYLEMNNLKPEDTAVYYCAAREGGLLHVATSYDYWGQGTQVTVSS

Drawing on US20260217847A1 (published 2026), this text covers EC50 for eleven molecules.

The target of one assay is T1, human recombinant TfR1 protein (amino acids 89-760) (human, UniProt P02786 89-760). The assay is described as follows: ELISA. A general note: In an ELISA, binding on a coated surface is turned into a signal by an enzyme label.
T1 sequence (P02786 89-760): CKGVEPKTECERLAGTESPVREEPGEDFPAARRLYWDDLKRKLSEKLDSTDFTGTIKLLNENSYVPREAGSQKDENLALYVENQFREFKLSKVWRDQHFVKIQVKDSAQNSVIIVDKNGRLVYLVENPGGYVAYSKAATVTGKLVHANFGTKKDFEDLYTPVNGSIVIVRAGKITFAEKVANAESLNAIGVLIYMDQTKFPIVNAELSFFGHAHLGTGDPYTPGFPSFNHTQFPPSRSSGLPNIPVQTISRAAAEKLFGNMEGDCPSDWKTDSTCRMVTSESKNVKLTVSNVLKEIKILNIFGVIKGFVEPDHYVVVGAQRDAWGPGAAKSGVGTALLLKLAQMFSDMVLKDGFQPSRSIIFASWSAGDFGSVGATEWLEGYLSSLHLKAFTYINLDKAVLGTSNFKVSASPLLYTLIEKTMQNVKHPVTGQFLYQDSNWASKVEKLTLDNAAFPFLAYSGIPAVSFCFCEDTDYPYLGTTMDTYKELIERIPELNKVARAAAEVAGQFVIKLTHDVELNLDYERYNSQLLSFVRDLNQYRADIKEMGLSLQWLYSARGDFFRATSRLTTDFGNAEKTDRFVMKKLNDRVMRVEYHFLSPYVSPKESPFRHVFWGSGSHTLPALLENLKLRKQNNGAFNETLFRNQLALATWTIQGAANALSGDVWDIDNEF
Consider B1, for which the EC50 (as a rule, the concentration giving half of the maximal effect) is 0.0592 nM. For the molecule B2, the EC50 is 0.0644 nM.

In the next assay the target is T1, human recombinant TfR1 protein (amino …). The assay is described as follows: ELISA. This is another data set of the same source.
For the molecule B3, the EC50 was determined as 0.0396 nM.

For the molecule B4, the EC50 is 0.0962 nM.

Another assay has the same target. The assay is described as follows: ELISA. This is another data set of the same source.
Take B5: the EC50 was found to be 0.0521 nM. Take B6: the EC50 was 0.0595 nM. On to B7, for which the concentration giving a half-maximal response (EC50) stood at 0.0761 nM. As for B8, the EC50 turned out to be 0.0724 nM.

B9: the EC50 is 0.151 nM.

As for B10, the EC50 is 0.0861 nM. With B11, the EC50 is 0.0854 nM.
